Data reported in patent publication KR20230163144A.
Each block holds one binder with its values, some of them ahead of it.

Target: IGSF1 항원 (IGSF1 카복시 말단 도메인의 세포외 도메인 - 인간 Fc - his tag 융합 단백질) (human) (UniProt Q8N6C5)
Assay: ELISA; human IGSF1 antigen diluted 1/3 from 100 nM to 0.046 nM; fit in GraphPad Prism 6

B4: WM-A1-2613 (antibody, V domains shown)
VH: QVQLQESGPGLVKPSGTLSLTCAVSGDSVISTDWWSWVRQPPGKELEWIGEIHHSGSTNYNPSLEGRVTISVDKSKNQFSLKLTSVTAVDTAVYYCSRGSGGRDAFDVWGQGTMITVSS
VL: QSALTQPPSSSGTPGQKVTISCSGSMSNIGGNYVSWYQQVPGTAPKLLIFKTNQGAAGVPDRFVGSKSGTSASLVISGLRPEDEATYYCASWDDIGDGPTWVFGGGTKLTVL
- Kd: 0.1 nM

B5: WM-A1-2608 (antibody, V domains shown)
VH: QVQLVQSGGGLVQPGGSLRLSCEASGFAFRRYEMNWVRQTPGKGLEWIAYINSGGSVKVYADSVKGRFAISRNDSKNSLYLQMNSLRAEDTAVYYCARAGNAFGTFDYWGQGTLVTVSS
VL: DIQMTQSPSSVSASVGDRVTITCRASQDISRWLAWYQQKPGKAPKRLMYAASVLDVGVPSRFSGSGSGTDFTLTISNLQPEDFATYYCQQPISFPLTFGGGTKVDIK
- Kd: 0.097 nM

B7: WM-A1-3102 (antibody, V domains shown)
VH: QMQLVQSGAEVKKPGSSVKVSCKASGGTFSSYAISWVRQAPGQGLEWMGGIIPVLGATNYAQRFQGRVTMTADESTTTAYMELSGLRSEDTAVYYCARGRSWGFDYWGHGTLITVSS
VL: DIVMTQTPLSLPVTPGQPASISCKSSQSLLHSDGNTYLDWYLQKPGQSPQLLIYTLSHRASGVPDRFSGSGSGTDFTLKISRVEADDVGLYYCMQRIEFPYTFGQGTKVEIK
- Kd: 18.8 nM

Other lines, results leading:

- Kd: 27.2 nM
B1: WM-A1-3128 (antibody, V domains shown)
VH: QVQLVESGGGVVQPGKSLRLSCAASGFSLRTYGMHWVRQAPGKGLEWVANIWHDGSHTFYADSVQGRFTVSRDNSANLLFLQMNSLRAEDTAVYYCARGGSYSRYSDAFDIWGQGTVITVSS
VL: DIQMTQSPGTLSLSPGERATLSCRASQSVSSSYLAWYQQKPGQAPRLLIYDASNRATGIPARFSGTGSGTDFTLTISSLEPEDFAVYYCQQRSNWPLTFGGGTKVEIK

- Kd: 20.8 nM
B2: WM-A1-3106 (antibody, V domains shown)
VH: QVQLVESGGGVVPPGGSVRLSCAASGFTFGDYAMHWVRQAPGKGLEWVSLISGDGGTTYYGDSVKGRYTISRDNSKNSLYLQMNSLRAEDTAVYYCARGGRVYGMDVWGQGTTVTVSS
VL: DIQMTQSPSSLSASVGNRVTITCRASQGISVWLAWFQQKPETAPKSLIYGSSNLQSGVPSRFSGSGSGTDFTLTINNLQPEDFATYYCQQYKASPPTFGGGTKVDIK

- Kd: 29.5 nM
B3: WM-A1-3105 (antibody, V domains shown)
VH: QMQLVQSGAEVKRPGSSVKVSCKASGRSTYNYAFYWVRQAPGHGLEWMGGIIPIFGATNYAQKFQGRVTITADESTNTAYMEVTNLRSEDTAVYYCAKGSGNYYYGMDVWGQGTTVTVSS
VL: DIQMTQSPSSVSASVGDRVTITCRASQSVGTWLAWYQQKPGRAPKLLISAASSLHPGVPSRFSGSGSGTDFTLTISSLQPEDFATYYCQQADSFPYTFGQGTKLEIK

- Kd: 300 nM
B6: WM-A1-3133 (antibody, V domains shown)
VH: QMQLVQSGGKLVQPGSSLRLSCAASGFSFDDYGMSWVRQAPGKGLEWVSAISGSGGSTYYADSVKGRFTISRDNSKNTLYLQMNSLRAEDTAVYYCARGGRVYGMDVWGQGTTVTVSS
VL: DIQMTQSPSSVSASVGDTVTITCRASHDIRRWLAWYQQKPGEVPKVLIYAAAVLHSGVPSRFSGSGSGTDFSLTITNLQPEDVATYYCQKYDSVPFTFGGGTKLEIK
